Target: T1, interferon response factor 3 (IRF3), endogenous in HeLa cells (human, UniProt Q14653 1-427)
T1 construct: Phosphorylation state after poly(I:C) was not defined for the immunoprecipitated material
T1 sequence (looked up): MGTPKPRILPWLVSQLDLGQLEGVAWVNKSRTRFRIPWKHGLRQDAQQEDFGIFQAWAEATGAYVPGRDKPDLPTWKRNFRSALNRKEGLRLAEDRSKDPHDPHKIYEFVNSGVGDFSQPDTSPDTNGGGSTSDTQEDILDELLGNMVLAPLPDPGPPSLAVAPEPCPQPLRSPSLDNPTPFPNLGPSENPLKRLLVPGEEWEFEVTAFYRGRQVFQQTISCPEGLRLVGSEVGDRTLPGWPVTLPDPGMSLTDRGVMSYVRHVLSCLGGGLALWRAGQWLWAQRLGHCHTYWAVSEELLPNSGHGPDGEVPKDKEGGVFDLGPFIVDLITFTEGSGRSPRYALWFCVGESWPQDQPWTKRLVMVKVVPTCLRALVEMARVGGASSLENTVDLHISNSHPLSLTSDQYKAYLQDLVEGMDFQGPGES
Experiment: co-immunoprecipitation from HeLa lysates with immobilised anti-IRF3 antibody, western blot, -/+ poly(I:C)
Protocol: Immunoprecipitation and cell fractionation: For immunoprecipitation, 25 μg of antibody was coupled to 50 μg of agarose beads using the Pierce direct immunoprecipitation kit as specified by the manufacturers (Life Technologies). Cells were lysed in NP-40 lysis buffer provided and pre-cleared with a non-specific isotype agarose control at 4° C. for 1 hour, then incubated with ˜1.5 μg agarose-coupled antibody at 4° C. overnight. Resin was washed multiple times then elution performed using non-reducing sample buffer (containing 2% w/v SDS) at 100° C. for 10 mins. Cytosolic and nuclear fractions were prepared from cells using the Pierce NE-PER cell fractionation kit (Life Technologies) as specified by the manufacturers, and total protein quantitated by BCA assay (Life Technologies) before western blot analyses.
To access whether C6orf106 binds IRF3, C6orf106-flag was co-expressed with GFP −/+ poly(I:C) as described above, then performed a direct co-immunoprecipitation with immobilised IRF3 antibodies. As shown in FIG. 10A C6orf106 could be detected in IRF3-immunoprecipitated lysates, and this was increased approximately four-fold in the presence of poly(I:C). […] Cells were lysed and subjected to […] immunoprecipitation with an anti-IRF3 antibody. IP samples and input controls were probed with anti-FLAG antibody for western blotting. […]

B1: Flag-tagged C6orf106 (C6orf106-FLAG, expressed from pCAGGs-C6-FLAG) (other)
chain: MEGMDVDLDPELMQKFSCLGTTDKDVLISEFQRLLGFQLNPAGCAFFLDMTNWNLQAAIGAYYDFESPNISVPSMSFVEDVTIGEGESIPPDTQFVKTWRIQNSGAEAWPPGVCLKYVGGDQFGHVNMVMVRSLEPQEIADVSVQMCSPSRAGMYQGQWRMCTATGLYYGDVIWVILSVEVGGLLGVTQQLSSFETEFNTQPHRKVEGNFNPFASPQKNRQSDENNLKDPGGSEFDSISKNTWAPAPDTWAPAPDQTEQDQNRLSQNSVNLSPSSHANNLSVVTYSKGLHGPYPFGQSGDYKDDDDK
notes: Over-expressed in HeLa or HEK293T cells and tested in cell lysates by co-immunoprecipitation
fold increase of C6orf106 co-immunoprecipitated with IRF3 in the presence of poly(I:C) versus without: ~4 fold

Reference: patent publication US20180362625A1 (COMMONWEALTH SCIENTIFIC AND INDUSTRIAL RESEARCH ORGANISATION, published 2018)
